The record followed here is patent US20220185898A1 (Alector, published 2022).

Positions count from the first letter of the chain named. No end group written: not given here. *: point of attachment. Biotin = O=C1N[C@H]2[C@H](CS[C@H]2CCCCC(=O)*)N1

Experiment [1] concerns the target T1, human Sortilin Fc fusion protein (human, UniProt Q99523 78-755).
T1 construct: whole entry named; also called hSort-Fc
Put plainly: ForteBio, avid.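 Also: whole IgG captured on AHQ sensors, then contacted with Sortilin Fc fusion antigen at 100 nM, followed by an off-rate phase in buffer.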
Procedure: (§1) The affinity for the Sortilin antibodies was determined by measuring their KD by ForteBio. […] Briefly, ForteBio affinity measurements were performed by loading IgGs on-line onto AHQ sensors. Sensors were equilibrated off-line in assay buffer for 30 min and then monitored on-line for 60 seconds for baseline establishment. For avid binding measurement, sensors with loaded IgGs were exposed to 100 nM antigen (human or mouse Sortilin Fc fusion) for 3, afterwards they were transferred to assay buffer for 3 min for off-rate measurement.
(§2) The binding affinity of each anti-Sortilin antibody was determined by measuring their KD by ForteBio or MSD-SET at room temperature. […] Briefly, ForteBio affinity measurements were performed by loading IgGs on-line onto AHQ sensors. Sensors were equilibrated off-line in assay buffer for 30 min and then monitored on-line for 60 seconds for baseline establishment. Sensors with loaded IgGs were exposed to 100 nM antigen for 5 minutes, then transferred to assay buffer for 5 min for off-rate measurement. Kinetics were analyzed using the 1:1 binding model.

Experiment [2] concerns the target T2, mouse Sortilin Fc fusion protein (mouse; human, UniProt Q6PHU5 74-754).
T2 construct: whole entry named; also called mSort-Fc
Put plainly: ForteBio, avid.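 Also: whole IgG captured on AHQ sensors, then contacted with Sortilin Fc fusion antigen at 100 nM, followed by an off-rate phase in buffer.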
Procedure: as §1, §2

The target of experiment [3] is T3, human Sortilin expressed on 293 / HEK293T cells (human, UniProt Q99523 78-830).
T3 construct: full-length recombinant human Sortilin; also called hSort; SORT1
Nature of the experiment: FACS, 293 cells.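 Also: antibodies at 10 µg/ml bound to cells for 1 h on ice, detected with PE-labelled anti-human secondary antibody by flow cytometry, reported as mean fluorescence intensity.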
Procedure: (§3) Cells were harvested, plated at 10⁵/ml in a 96 well plate, washed, and incubated in 100 μl PBS containing 10 μg/ml Mab and 2% FBS for 1 hour in ice. Cells were then washed twice and incubated in 100 μl PBS+2% FBS containing 5 μg/ml PE-conjugated anti-human secondary antibody for 30 minutes in ice. Cells were washed twice in cold PBS and data was acquired on a BD FACS Canto. Data analysis and calculation of MFI values was performed with FlowJo (TreeStar) software version 10.0.7.

In experiment [4] the target is T4, mouse Sortilin expressed on 293 / HEK293T cells (mouse, UniProt Q6PHU5 74-825).
T4 construct: full-length recombinant mouse Sortilin; also called mSort; msSort
Put plainly: FACS, 293 cells.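 Also: antibodies at 10 µg/ml bound to cells for 1 h on ice, detected with PE-labelled anti-human secondary antibody by flow cytometry, reported as mean fluorescence intensity.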
Procedure: as §3

Experiment [5] concerns the target T3, human Sortilin expressed on 293 / …. Put plainly: cell binding, HEK293T, FACS.
In experiment [6] the target is T4, mouse Sortilin expressed on 293 / …. Nature of the experiment: cell binding, HEK293T, FACS.
Experiment [7] has as its target T5, biotinylated human Sortilin monomer (human, UniProt Q99523 78-755, limits assumed, biotinylated (Sulfo-NHS-biotin)).
T5 construct: monomer cut from the Fc fusion with IdeS; used unbiotinylated in solution in some formats; also called Bt-hSort; b-H Sort
Put plainly: MSD-SET, Fab.
Procedure: (§4) Antibodies (20 nM in PBS) were coated onto standard bind MSD-ECL plates overnight at 4° C. or at room temperature for 30 min. Plates were then blocked with 1% BSA for 30 min with shaking at 700 rpm, followed by three washes with wash buffer (PB SF+0.05% Tween 20). SET samples were applied and incubated on the plates for 150 s with shaking at 700 rpm followed by one wash. Antigen captured on a plate was detected with 250 ng/ml sulfotag-labeled streptavidin in PBSF by incubation on the plate for 3 min. The plates were washed three times with wash buffer and then read on the MSD Sector Imager 2400 instrument using 1× Read Buffer T with surfactant. The percent free antigen was plotted as a function of titrated antibody in Prism and fit to a quadratic equation to extract the KD. To improve throughput, liquid handling robots were used throughout MSD-SET experiments, including SET sample preparation.

In experiment [8] the target is T6, biotinylated mouse Sortilin monomer (mouse, UniProt Q6PHU5 74-754, limits assumed, biotinylated).
T6 construct: also called Bt-msSort
Nature of the experiment: MSD-SET, Fab.
Procedure: as §4

Experiment [9] has as its target T5, biotinylated human Sortilin monomer. Nature of the experiment: ForteBio, Fab.
Procedure: (§5) The affinity of the anti-Sortilin antibodies was determined by measuring their KD by ForteBio and MSD. […] Briefly, ForteBio affinity measurements were performed by loading immunoglobulins (IgGs) on-line onto AHQ sensors. Sensors were equilibrated off-line in assay buffer for 30 min and then monitored on-line for 60 seconds for baseline establishment. For avid binding measurement, sensors with loaded IgGs were exposed to 100 nM antigen (human or mouse Sortilin Fc fusion) for 3 min, afterwards they were transferred to assay buffer for 3 min for off-rate measurement. […] Monovalent binding measurements were obtained by loading human or mouse Sortilin Fc fusion antigens to AHQ sensor and followed by exposure to −100 nM Sortilin antibody Fab. […] Kinetics data were fit using a 1:1 binding model in the data analysis software provided by ForteBio.
Experiment [10] addresses T6, biotinylated mouse Sortilin monomer. Put plainly: ForteBio, Fab.
Procedure: as §5
In experiment [11] the target is T3, human Sortilin expressed on 293 / …. Put plainly: FACS, HEK293T + hSort.
Procedure: (§6) Antibodies were diluted in FACS buffer (PBS+2% FBS+0.01% NaAzide). After incubation on ice for 1 h, cells were washed three times in FACS buffer and incubated with anti-human PE conjugated secondary antibody (BD Biosciences, 1:100 dilution) for 30 min on ice. Then cells were washed twice in 200 ul FACS buffer, and subsequently analyzed on a FACS Canto or iQE FACS screening instrument (Intellicyt Corp).
Experiment [12] concerns the target T4, mouse Sortilin expressed on 293 / …. Put plainly: FACS, HEK293T + msSort.
Procedure: as §6
Experiment [13] deals with T5, biotinylated human Sortilin monomer. Put plainly: ForteBio, peptide format: human Sortilin monomer (100 nM) on biotinylated PGRN peptide on SA sensors.
Procedure: SA sensors were soaked in PBS for 10 min prior to analysis. […] The data was prepared for analysis with ForteBio Data Analysis Software version 8.1.0.36 as follows. The data was y-axis aligned and inter-step corrected to the beginning of the Sortilin capture step and then cropped to show only the Sortilin capture and antibody interaction steps.

B1: S-22 (antibody, V domains shown)
VH: QVQLVQSGAEVKKPGSSVKVSCKASGGTFSSYAISWVRQAPGQGLEWMGGIIPIFGTASYAQKFQGRVTITADESTSTAYMELSSLRSEDTAVYYCARQGRKTGYYYYYGMDVWGQGTTVTVSS
VL: DIQMTQSPSTLSASVGDRVTITCRASQSISSWLAWYQQKPGKAPKLLIYKASSLESGVPSRFSGSGSGTEFTLTISSLQPDDFATYYCQQADGHITFGGGTKVEIK
notes: IgG
For the molecule B1, the Kd in experiment [1] was found to be 0.99 nM; in experiment [2] it was 1.12 nM; in [5], 2.4 nM; in experiment [6], 5 nM. Also, the MFI in experiment [3] was determined as 8940; in experiment [4] it was 23200.

B2: S-22-3 Fab (Fab, V domains shown)
VH: B1 VH with S30R, I54G, S59W
VL: B1 VL
notes: Fab by papain digestion
As to B2, the Kd was found to be 0.097 nM in [7], 1.2 nM in [8], 0.698 nM in experiment [9] and 1.43 nM in experiment [10].

B3: S-22-9 Fab (Fab, V domains shown)
VH: B1 VH with S30R, S31N, F55G, T57W, S59N
VL: B1 VL
notes: Fab by papain digestion
Regarding B3, the Kd in experiment [7] came to 0.0048 nM; in experiment [9], 0.575 nM; in [10], 3.29 nM.

B4: S-22-7 (antibody, V domains shown)
VH: B1 VH with I54G, T57R, S59N
VL: B1 VL
notes: IgG
Consider B4, for which the Kd in experiment [11] came to 2.65 nM; in [12], 4.78 nM.

B5: S-22-7 Fab (Fab, V domains shown)
VH: B1 VH with I54G, T57R, S59N
VL: B1 VL
notes: Fab by papain digestion
With B5, the Kd was 0.098 nM in [7], 0.57 nM in experiment [8], 0.508 nM in experiment [9] and 0.751 nM in experiment [10].

B6: S-22-9 (antibody, V domains shown)
VH: B1 VH with S30R, S31N, F55G, T57W, S59N
VL: B1 VL
notes: IgG
With B6, the dissociation constant Kd was found to be 0.81 nM in experiment [11] and 5.12 nM in experiment [12].

B7: S-22-3 (antibody, V domains shown)
VH: B1 VH with S30R, I54G, S59W
VL: B1 VL
notes: IgG
Turning to B7, the Kd in experiment [11] was 1.08 nM; in experiment [12], 3.63 nM.

B8: S-2-1 (antibody, V domains shown)
VH: QVQLVQSGAEVKKPGASVKVSCKASGYTFGAYYMHWVRQAPGQGLEWMGWINPNSGFTRYAQKFQGRVTMTRDTSISTAYMELSRLRSDDTAVYYCARGKRSSGWYEGYGMDVWGQGTTVTVSS
VL: DIQMTQSPSSLSASVGDRVTITCRASQSISSYLNWYQQKPGKAPKLLIYAASSLQSGVPSRFSGSGSGTDFTLTISSLQPEDFATYYCQQSDVSPITFGGGTKVEIK
notes: IgG
As to B8, the equilibrium dissociation constant (Kd) in experiment [11] turned out to be 0.691 nM; in experiment [12], 2.65 nM.

B9: S-2-2 Fab (Fab, V domains shown)
VH: B8 VH with G30V, F57A
VL: B8 VL
notes: Fab by papain digestion
In the case of B9, the dissociation constant (Kd) in [8] turned out to be 0.79 nM; in experiment [10], 2.68 nM.

B10: S-2-11 Fab (Fab, V domains shown)
VH: B8 VH with G30L, N54S, S55W, F57S, R59S
VL: B8 VL
notes: Fab by papain digestion
As to B10, the Kd turned out to be 0.011 nM in experiment [7], 0.261 nM in experiment [9] and 7.59 nM in [10].

B11: S-2 (antibody, V domains shown)
VH: not shown
VL: B8 VL
notes: IgG; also called S-02
Turning to B11, the equilibrium dissociation constant (Kd) in experiment [1] is 0.517 nM; in experiment [2], 1.07 nM; in experiment [5], 1.1 nM; in experiment [6], 6.6 nM. Moreover, the figures for the MFI in [3] and in experiment [4] were 8430 and 22400, respectively.

B12: S-2-11 (antibody, V domains shown)
VH: B8 VH with G30L, N54S, S55W, F57S, R59S
VL: B8 VL
notes: IgG
Regarding B12, the Kd in experiment [11] came out at 0.377 nM; in experiment [12] it was 1.54 nM.

B13: S-15-3 (antibody, V domains shown)
VH: QVQLVQSGAEVKKPGASVKVSCKASGYTFTSTYMSWVRQAPGQGLEWMGIINPYGGSTSYAQKFQGRVTMTRDTSTSTVYMELSSLRSEDTAVYYCARDPSGIAAAGPASRYYYGMDVWGQGTTVTVSS
VL: EIVMTQSPATLSVSPGERATLSCRASQSVSSNLAWYQQKPGQAPRLLIYGASTRATGIPARFSGSGSGTEFTLTISSLQSEDFAVYYCQQARLGPWTFGGGTKVEIK
notes: IgG
B13: the results for the dissociation constant (Kd) in [11] and in [12] were 5.25 nM and 17.9 nM, respectively.

B14: S-15-3 Fab (Fab, V domains shown)
VH: B13 VH
VL: B13 VL
notes: Fab by papain digestion
With B14, the Kd in experiment [7] was 0.26 nM; in experiment [8] it was 0.11 nM; in experiment [9], 0.943 nM; in experiment [10] it was 0.769 nM.

B15: S-15-14 (antibody, V domains shown)
VH: B13 VH with T32Q
VL: B13 VL
notes: IgG
As for B15, the dissociation constant Kd in experiment [11] was 5.25 nM; in experiment [12] it was 19.4 nM.

B16: S-15-14 Fab (Fab, V domains shown)
VH: B13 VH with T32Q
VL: B13 VL
notes: Fab by papain digestion
With B16, the Kd came out at 0.19 nM in [7], 0.1 nM in experiment [8], 1.04 nM in experiment [9] and 0.758 nM in [10].

B17: S-15 (antibody, V domains shown)
VH: B13 VH with T32Y, Y54S
VL: B13 VL
notes: IgG
Turning to B17, the equilibrium dissociation constant (Kd) came to 2.3 nM in experiment [1], 1.4 nM in experiment [2], 3.3 nM in experiment [5] and 6.4 nM in experiment [6]. The MFI in experiment [3] turned out to be 8740; in [4], 17600.

B18: S-15-6 Fab (Fab, V domains shown)
VH: B13 VH with T32R, Y54V
VL: B13 VL
notes: Fab by papain digestion
In the case of B18, the Kd in experiment [8] was 0.07 nM; in [10] it was 0.678 nM.
Regarding Biotin-TKCLRREAPRWDAPLRDPALRQLL (also called hPGRN peptide) [biotinylated Progranulin C-terminal peptide], in experiment [13], the binding result is on record as “binds”.
